{"source": "paper PMC9328939", "about": "“A Randomized Double‐Blind Placebo‐Controlled First‐In‐Human Phase 1 Trial of TransCon PTH in Healthy Adults” (Journal of Bone and Mineral Research, 2020)", "key": {"[1]": {"test": "Pharmacokinetics of Free PTH after a single s.c. dose of TransCon PTH (SAD cohorts)", "type": "in vivo, human", "details": "for Free PTH tmax: median (min-max); for Free PTH Cmax / Free PTH t½ / Free PTH AUC0-t: geometric mean (CV%)"}, "[2]": {"tested_on": "healthy adults", "test": "Pharmacodynamics: albumin-adjusted serum calcium (sCa)", "type": "in vivo, human"}, "[3]": {"tested_on": "healthy adults", "test": "Pharmacodynamics: fractional excretion of calcium (FECa)", "type": "in vivo, human", "details": "despite mild hypercalcemia, normal limits approximately 0.4% to 2%", "protocol": "Twice‐daily 12‐hour urine samples (including calcium, phosphorus, magnesium, and creatinine) were also collected. In MAD cohorts, serum samples collected from TransCon PTH‐treated and placebo‐treated subjects predose and postdose on day 14 were analyzed for anti‐PTH binding antibodies by BioAgilytix (Durham, NC, USA) using an electrochemiluminescence bridging assay. Samples were analyzed using a multitiered approach consisting of a screening assay and a confirmatory assay."}, "[4]": {"tested_on": "healthy adults", "test": "Pharmacodynamics: serum phosphate (sP)", "type": "in vivo, human", "details": "MAD cohorts, near steady-state (days 8 to 10); linear regression on dose, p = .0430", "protocol": "All statistical analyses were performed using SAS 9.3 or higher (SAS Institute, Inc., Cary, NC, USA). Summary statistics were reported for continuous data, including mean, standard deviation, standard error, median, minimum, and maximum, whereas number and percentage of subjects within treatment groups were reported for categorical data. For sP and TMP/GFR, a linear regression model was performed for the change from baseline, with dose and baseline as independent variables at near steady‐state. Near steady‐state was defined as the average of predose values on day 8, 9, and 10. Dose was defined as a continuous variable where placebo was considered zero."}, "[5]": {"tested_on": "healthy adults", "test": "Pharmacodynamics: serum magnesium (sMg)", "type": "in vivo, human", "details": "MAD cohorts; data not shown"}, "[6]": {"tested_on": "healthy adults", "test": "Pharmacodynamics: 1,25-dihydroxyvitamin D", "type": "in vivo, human", "details": "healthy subjects; data not shown"}, "[7]": {"tested_on": "healthy adults", "test": "Pharmacodynamics: suppression of intact endogenous PTH(1-84)", "type": "in vivo, human"}, "[8]": {"test": "Pharmacokinetics of Free PTH after 10 daily s.c. doses of TransCon PTH (MAD cohorts)", "details": "for Free PTH AUC0-24h / Free PTH t½ / Free PTH Cmax: geometric mean (CV%); for Free PTH tmax: median (min-max)"}, "[9]": {"details": "single s.c. 72 μg PTH(1-34), n = 7"}, "[10]": {"details": "single s.c. 100 μg PTH(1-34), n = 8"}, "[11]": {"details": "single s.c. 124 μg PTH(1-34), n = 8"}, "[12]": {"details": "MAD cohorts, daily doses x 10 days"}, "[13]": {"details": "MAD, 12 μg PTH(1-34)/day s.c. x 10 days, n = 6"}, "[14]": {"details": "MAD, 16 μg PTH(1-34)/day s.c. x 10 days, n = 7"}, "[15]": {"details": "MAD, 20 μg PTH(1-34)/day s.c. x 10 days, n = 6"}, "[16]": {"details": "MAD, 24 μg PTH(1-34)/day s.c. x 10 days, n = 3"}}, "data": [{"substance": "TransCon PTH: long-acting, essentially inactive prodrug: PTH(1-34) transiently bound to an inert 40 kDa mPEG carrier via a proprietary autocleaving linker", "values": [{"measurement": "Free PTH tmax", "setting": "[1]; single s.c. 48 μg PTH(1-34), healthy adults, n = 7", "value": "8.0 (4.0–24.0) (n = 7) h"}, {"measurement": "Free PTH Cmax", "setting": "[1]; single s.c. 48 μg PTH(1-34), healthy adults, plasma, UHPLC-MS/MS, n = 7", "value": "6.61 (19.7) (n = 7) pg/mL"}, {"measurement": "Free PTH t½", "setting": "[1]; single s.c. 72 μg PTH(1-34), n = 5", "value": "54.4 (18.9) (n = 5) h"}, {"measurement": "Free PTH Cmax", "setting": "[1]; [9]", "value": "7.67 (28.5) (n = 7) pg/mL"}, {"measurement": "Free PTH AUC0-t", "setting": "[1]; single s.c. 72 μg PTH(1-34), healthy adults, plasma, UHPLC-MS/MS, n = 5", "value": "420 (20.3) (n = 5) h*pg/mL"}, {"measurement": "Free PTH tmax", "setting": "[1]; [9]", "value": "4.0 (4.0–60.3) (n = 7) h"}, {"measurement": "Free PTH t½", "setting": "[1]; single s.c. 100 μg PTH(1-34), n = 7", "value": "51.0 (32.4) (n = 7) h"}, {"measurement": "Free PTH AUC0-t", "setting": "[1]; [10]", "value": "594 (17.3) (n = 8) h*pg/mL"}, {"measurement": "Free PTH Cmax", "setting": "[1]; [10]", "value": "12.9 (11.7) (n = 8) pg/mL"}, {"measurement": "Free PTH tmax", "setting": "[1]; [10]", "value": "6.0 (4.0–8.0) (n = 8) h"}, {"measurement": "Free PTH t½", "setting": "[1]; single s.c. 124 μg PTH(1-34), n = 7", "value": "55.7 (37.1) (n = 7) h"}, {"measurement": "Free PTH AUC0-t", "setting": "[1]; [11]", "value": "684 (36.9) (n = 8) h*pg/mL"}, {"measurement": "Free PTH Cmax", "setting": "[1]; [11]", "value": "13.8 (45.5) (n = 8) pg/mL"}, {"measurement": "Free PTH tmax", "setting": "[1]; [11]", "value": "4.0 (4.0–60.0) (n = 8) h"}, {"measurement": "albumin-adjusted sCa on day 11", "setting": "[2]; MAD, 24 μg PTH(1-34)/day x 10 days, n = 8, mean (± SD as printed), baseline 9.60 ± 0.06", "value": "10.63 ± 0.22", "unit": "mg/dL"}, {"measurement": "albumin-adjusted sCa on day 2", "setting": "[2]; SAD, single s.c. 124 μg PTH(1-34), n = 8, mean ± SD as printed, baseline 9.43 ± 0.09", "value": "10.97 ± 0.20", "unit": "mg/dL"}, {"measurement": "FECa (spot)", "setting": "[3]; [12]", "value": "remained essentially within normal limits"}, {"measurement": "FECa", "setting": "[3]; SAD cohorts, data not shown", "value": "remained essentially within normal limits"}, {"measurement": "change in serum phosphate (sP) from baseline", "setting": "[4]", "value": "significant dose‐dependent decrease"}, {"measurement": "change in serum magnesium (sMg)", "setting": "[5]", "value": "nonsignificant increase"}, {"measurement": "1,25-dihydroxyvitamin D levels", "setting": "[6]", "value": "did not change significantly"}, {"measurement": "intact endogenous PTH(1-84)", "setting": "[7]; [12]", "value": "dose‐dependent suppression"}, {"measurement": "intact endogenous PTH(1-84)", "setting": "[7]; SAD cohorts, data not shown", "value": "dose‐dependent suppression"}, {"measurement": "Free PTH AUC0-24h", "setting": "[8]; MAD, 12 μg PTH(1-34)/day s.c. x 10 days, healthy adults, plasma, UHPLC-MS/MS, n = 5", "value": "122 (13.4) (n = 5) h*pg/mL"}, {"measurement": "Free PTH t½", "setting": "[8]; MAD, 12 μg PTH(1-34)/day s.c. x 10 days, n = 4", "value": "64.8 (39.2) (n = 4) h"}, {"measurement": "Free PTH Cmax", "setting": "[8]; [13]", "value": "6.24 (13.1) (n = 6) pg/mL"}, {"measurement": "Free PTH tmax", "setting": "[8]; [13]", "value": "4.0 (4.0–16.0) (n = 6) h"}, {"measurement": "Free PTH t½", "setting": "[8]; MAD, 16 μg PTH(1-34)/day s.c. x 10 days, n = 4", "value": "60.0 (20.3) (n = 4) h"}, {"measurement": "Free PTH AUC0-24h", "setting": "[8]; MAD, 16 μg PTH(1-34)/day s.c. x 10 days, n = 5", "value": "152 (9.4) (n = 5) h*pg/mL"}, {"measurement": "Free PTH Cmax", "setting": "[8]; [14]", "value": "6.87 (16.8) (n = 7) pg/mL"}, {"measurement": "Free PTH tmax", "setting": "[8]; [14]", "value": "8.0 (4.0–12.0) (n = 7) h"}, {"measurement": "Free PTH t½", "setting": "[8]; MAD, 20 μg PTH(1-34)/day s.c. x 10 days, n = 5", "value": "51.7 (44.5) (n = 5) h"}, {"measurement": "Free PTH AUC0-24h", "setting": "[8]; [15]", "value": "165 (21.7) (n = 6) h*pg/mL"}, {"measurement": "Free PTH Cmax", "setting": "[8]; [15]", "value": "8.30 (21.4) (n = 6) pg/mL"}, {"measurement": "Free PTH tmax", "setting": "[8]; [15]", "value": "6.1 (4.0–16.1) (n = 6) h"}, {"measurement": "Free PTH AUC0-24h", "setting": "[8]; [16]", "value": "231 (24.2) (n = 3) h*pg/mL"}, {"measurement": "Free PTH Cmax", "setting": "[8]; [16]", "value": "11.1 (27.6) (n = 3) pg/mL"}, {"measurement": "Free PTH t½", "setting": "[8]; [16]", "value": "69.0 (22.3) (n = 3) h"}, {"measurement": "Free PTH tmax", "setting": "[8]; [16]", "value": "7.9 (4.0–12.0) (n = 3) h"}, {"measurement": "Free PTH level", "setting": "[8]; MAD, TransCon PTH 12 μg PTH(1-34)/day", "value": 5, "unit": "pg/mL"}, {"measurement": "mean effective half-life of Free PTH", "setting": "[8]; after multiple daily s.c. dosings, healthy adults", "value": "approximately 60 hours"}]}]}
